What all share (assay): CD
The subject of series [1] is lsZαE3L (lumpy skin disease virus).
Another series has as its system hZαADAR1 (Homo sapiens).
The next series concerns spZαE3L (swinepox virus).

With d(CG)n DNA for CD B-to-Z conversion, the binding signal (% B-to-Z conversion) in series [1] turned out to be 90; in the series with hZαADAR1 (Homo sapiens), 100; with spZαE3L (swinepox virus), 65.
